First the molecules themselves.
B1: cdr2 203-211 TMLQAQLSL (peptide)
peptide: TMLQAQLSL
B2: cdr2 201-209 TVTMLQAQL (peptide)
peptide: TVTMLQAQL
B3: cdr2 111-119 KILSLTETI (peptide)
peptide: KILSLTETI
B4: cdr2 176-184 VFAEKITSL (peptide)
peptide: VFAEKITSL
B5: cdr2 65-73 YLTKQVELL (peptide)
peptide: YLTKQVELL
B6: cdr2 164-172 LYDLRQHFV (peptide)
peptide: LYDLRQHFV
B7: cdr2 120-128 ECLQTNIDH (peptide)
peptide: ECLQTNIDH
B8: cdr2 429-437 IFSCIKKTK (peptide)
peptide: IFSCIKKTK
B9: cdr2 419-427 PPEYKALFK (peptide)
peptide: PPEYKALFK
B10: cdr2 401-409 SGWELASVN (peptide)
peptide: SGWELASVN
B11: cdr2 357-365 KVKYEELLK (peptide)
peptide: KVKYEELLK
B12: cdr2 66-74 LTKQVELLR (peptide)
peptide: LTKQVELLR
B13: cdr2 60-68 LQEIEYLTK (peptide)
peptide: LQEIEYLTK
B14: cdr2 276-284 PDSLYVPFK (peptide)
peptide: PDSLYVPFK
B15: cdr2 103-111 ADSKASQQK (peptide)
peptide: ADSKASQQK
B16: cdr2 415-423 SPTTPPEYK (peptide)
peptide: SPTTPPEYK
B17: cdr2 129-137 LQSQVEELK (peptide)
peptide: LQSQVEELK
B18: cdr2 238-246 GATGAYRAR (peptide)
peptide: GATGAYRAR
B19: cdr2 58-66 EQLQEIEYL (peptide)
peptide: EQLQEIEYL
B20: cdr2 282-290 PFKEPSQSL (peptide)
peptide: PFKEPSQSL
B21: cdr2 425-433 LFKEIFSCI (peptide)
peptide: LFKEIFSCI
B22: cdr2 316-324 SSLAGSDIV (peptide)
peptide: SSLAGSDIV
B23: cdr2 173-181 YDHVFAEKI (peptide)
peptide: YDHVFAEKI
B24: cdr2 338-346 VKQRGISLL (peptide)
peptide: VKQRGISLL
B25: cdr2 266-274 PFVNGVEKL (peptide)
peptide: PFVNGVEKL
B26: cdr2 421-429 EYKALFKEI (peptide)
peptide: EYKALFKEI
B27: cdr2 169-177 QHFVYDHVF (peptide)
peptide: QHFVYDHVF
B28: cdr2 79-87 QHAKVYEQL (peptide)
peptide: QHAKVYEQL
B29: cdr2 52-60 MYTTNQEQL (peptide)
peptide: MYTTNQEQL
B30: cdr2 64-72 EYLTKQVEL (peptide)
peptide: EYLTKQVEL
B31: cdr2 271-279 VEKLVPDSL (peptide)
peptide: VEKLVPDSL
B32: cdr2 352-360 QYSALKVKY (peptide)
peptide: QYSALKVKY
B33: cdr2 422-430 YKALFKEIF (peptide)
peptide: YKALFKEIF
B34: cdr2 153-161 KPAPSFACL (peptide)
peptide: KPAPSFACL
B35: cdr2 68-76 KQVELLRQM (peptide)
peptide: KQVELLRQM
B36: cdr2 298-306 VPESHRKPL (peptide)
peptide: VPESHRKPL
B37: cdr2 253-261 EVAEMRQML (peptide)
peptide: EVAEMRQML
B38: cdr2 381-389 TSRAAAKDL (peptide)
peptide: TSRAAAKDL

For one test, the target named is T1, HLA-A*0201 (human).
T1 construct: also called HLA-A2.1; HLA A2.1
Kind of test: iTopia binding.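 Note: each peptide tested for binding to HLA-A2 molecules immobilized on plates, using a commercial screening kit run per its supplied protocol and reagents.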
In the case of B1, the “binding vs positive control” value was over 30%.
Regarding B2, the “binding vs positive control” value was over 30%.
For the molecule B3, the “binding vs positive control” value is over 30%.
As for B4, the “binding vs positive control” value is over 30%.
As to B5, the “binding vs positive control” value is over 30%.
For the molecule B6, the “binding vs positive control” value is over 30%.
Turning to B7, the “binding vs positive control” value is over 30%.

In a further test the target is T1, HLA-A*0201. Briefly: iTopia affinity.
Turning to B1, the ED50 is 0.8 µM.
For B2, the ED50 was 3 µM.
The molecule B3 yielded an ED50 of 7 µM.
In turn, B4 registered an ED50 of 5 µM.
With B5, the ED50 was 2 µM.
In the case of B6, the ED50 was 0.5 µM.
Turning to B7, the ED50 was 30 µM.

The next test concerns the target T1, HLA-A*0201. Briefly: iTopia off-rate.
As to B1, the t1/2 is 9.8.
For B2, the t1/2 was determined as 0.6.
Consider B3, for which the t1/2 came out at 10.5.
B4: the t1/2 worked out at 0.4.
Still for that read-out and setting: the same measure for B5: 8.1; for B6: 0.4; for B7: 5.4.

Another test concerns the target HLA-A*1101 (human). Briefly: iTopia affinity.
With B8, the ED50 worked out at 12 µM.
In turn, B9 came in with an ED50 of 26 µM.
As to B10, the ED50 came out at 31 µM.
In turn, B11 yielded an ED50 of 1.2 µM.
Consider B12, for which the ED50 amounted to 7.9 µM.
As for B13, the ED50 came to 62 µM.
As to B14, the ED50 was 25 µM.
Regarding B15, the ED50 is 56 µM.
Consider B16, for which the ED50 is 20 µM.
Regarding B17, the ED50 amounted to 24 µM.
B18: the ED50 came to 19 µM.

Another test has as its target HLA-A*1101 (human). Kind of test: iTopia off-rate.
B8: the t1/2 stood at 0.92.
As for B9, the t1/2 was found to be 0.31.
In the case of B10, the t1/2 turned out to be 0.8.
As to B11, the t1/2 came out at 2.26.
In turn, B12 displayed a t1/2 of 1.56.
Molecule B13 returned a t1/2 of 0.68.
As for B14, the t1/2 came out at 0.41.
For the molecule B15, the t1/2 was found to be 0.51.
Consider B16, for which the t1/2 came out at 1.78.
B17 came in with a t1/2 of 1.1.
B18 registered a t1/2 of 0.3.

The next test addresses HLA-A*2402 (human). Briefly: iTopia affinity.
B19 had an ED50 of 3.4 µM.
On the same count and under the same terms, the same measure for B20: 0.49 µM; for B21: 0.075 µM; for B8: 8.6 µM.
In the case of B22, the ED50 came out at 43 µM.
B23 gave an ED50 of 18 µM.
On the same count and under the same terms, the same measure for B24: 10 µM; for B1: 0.7 µM.
In turn, B25 came in with an ED50 of 1.4 µM.
The molecule B26 showed an ED50 of 0.44 µM.
Molecule B2 displayed an ED50 of 43 µM.
On to B27, for which the ED50 was determined as 3.1 µM.
On the same count and under the same terms, with B3 the figure was 1.5 µM.
B28 displayed an ED50 of 10 µM.
As for B4, the ED50 came out at 0.26 µM.
Take B5: the ED50 stood at 1.9 µM.
On the same count and under the same terms, with B29 the figure was 0.54 µM.
In turn, B6 had an ED50 of 1.6 µM.
B30 showed an ED50 of 0.65 µM.
On to B31, for which the ED50 turned out to be 8.8 µM.
Regarding B7, the ED50 stood at 18 µM.
B32: the ED50 was 3.1 µM.
In turn, B33 yielded an ED50 of 1.5 µM.

The target in another test is HLA-A*2402 (human). Briefly: iTopia off-rate.
Consider B19, for which the t1/2 was 1.47.
B20 gave a t1/2 of 1.25.
The same measure, in the same setting: with B21 the figure was 1.11; with B8, 1.16.
B22 had a t1/2 of 1.32.
B23: the t1/2 came to 0.75.
B24 had a t1/2 of 1.15.
Molecule B1 registered a t1/2 of 0.25.
B25: the t1/2 is 0.49.
Take B26: the t1/2 was determined as 1.63.
B2: the t1/2 was determined as 0.59.
For B27, the t1/2 was 0.21.
Same read-out and setting: the same measure for B3: 0.82; for B28: 0.25; for B4: 0.78.
The molecule B5 registered a t1/2 of 0.22.
With B29, the t1/2 was 1.46.
For B6, the t1/2 was 0.27.
Regarding B30, the t1/2 amounted to 1.72.
The same measure, in the same setting: the same measure for B31: 1.02; for B7: 0.72.
B32 registered a t1/2 of 0.35.
B33: the t1/2 was determined as 1.6.

For the next test, the target named is HLA-B*0702 (human). Briefly: iTopia affinity.
Molecule B34 returned an ED50 of 5.5 µM.
On the same count and under the same terms, the same measure for B35: 180 µM.
B36 showed an ED50 of 9.9 µM.
On to B37, for which the ED50 stood at 18 µM.
Turning to B38, the ED50 turned out to be 18 µM.

A further test concerns the target HLA-B*0702 (human). Kind of test: iTopia off-rate.
For the molecule B34, the t1/2 worked out at 1.29.
The molecule B35 displayed a t1/2 of 1.15.
Molecule B36 yielded a t1/2 of 1.33.
The same measure, in the same setting: the same measure for B37: 0.74; for B38: 1.19.

In another test the target is T1, HLA-A*0201. Briefly: iTopia net score.
For B1, the iScore is 0.811.
Take B2: the iScore worked out at 0.132.
B3 had an iScore of 0.512.
For B4, the iScore was found to be 0.106.
Still for that read-out and setting: with B5 the figure was 0.645; with B6, 0.199; with B7, 0.178.

The next test concerns the target HLA-A*1101 (human). Briefly: iTopia net score.
Turning to B8, the iScore was 0.088.
As for B9, the iScore stood at 0.058.
Molecule B10 had an iScore of 0.059.
On the same count and under the same terms, the same measure for B11: 0.22; for B12: 0.238; for B13: 0.048.
Molecule B14 returned an iScore of 0.063.
As for B15, the iScore came out at 0.054.
The molecule B16 showed an iScore of 0.136.
As for B17, the iScore was 0.103.
Molecule B18 returned an iScore of 0.056.

A further test addresses HLA-A*2402 (human). Kind of test: iTopia net score.
Consider B19, for which the iScore is 0.142.
The molecule B20 displayed an iScore of 0.496.
In turn, B21 yielded an iScore of 0.529.
B8 had an iScore of 0.108.
Molecule B22 returned an iScore of 0.081.
B23 registered an iScore of 0.089.
B24 displayed an iScore of 0.172.
In turn, B1 yielded an iScore of 0.117.
As for B25, the iScore is 0.218.
For the molecule B26, the iScore was 0.505.
On to B2, for which the iScore is 0.062.
Still for that read-out and setting: with B27 the figure was 0.097.
Regarding B3, the iScore is 0.261.
Still for that read-out and setting: with B28 the figure was 0.058; with B4, 0.446.
Regarding B5, the iScore was found to be 0.107.
As to B29, the iScore stood at 0.441.
In turn, B6 came in with an iScore of 0.157.
Turning to B30, the iScore came to 0.444.
Consider B31, for which the iScore was determined as 0.092.
Same read-out and setting: with B7 the figure was 0.095; with B32, 0.098.
As to B33, the iScore was 0.357.

A further test concerns the target HLA-B*0702 (human). Briefly: iTopia net score.
On to B34, for which the iScore amounted to 0.205.
Take B35: the iScore stood at 0.055.
B36 registered an iScore of 0.22.
Still for that read-out and setting: the same measure for B37: 0.077; for B38: 0.067.

The values are drawn from patent publication US20090208538A1 (ROCKEFELLER UNIVERSITY, published 2009).
